Experiments:
[1] = target: recombinant PD-L1 protein (PD-1 ligand), species not stated; assay: ELISA
[2] = target: recombinant PD-L1 protein (PD-1 ligand), species not stated; assay: MST

Chain of recombinant PD-L1 protein (PD-1 ligand), species not stated (Q9NZQ7 whole entry): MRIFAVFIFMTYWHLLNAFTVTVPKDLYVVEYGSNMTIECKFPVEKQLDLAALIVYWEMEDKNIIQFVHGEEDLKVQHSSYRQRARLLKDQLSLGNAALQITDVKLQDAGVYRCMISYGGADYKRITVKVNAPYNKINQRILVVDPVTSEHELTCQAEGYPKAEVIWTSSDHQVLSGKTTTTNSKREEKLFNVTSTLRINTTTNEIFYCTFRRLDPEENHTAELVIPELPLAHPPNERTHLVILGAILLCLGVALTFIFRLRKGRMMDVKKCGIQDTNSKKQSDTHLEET

Row | Binder | Kd [1] | Kd [2]
1 | huHF-αPD-L1 HCDR3 (CD loop), Examples 1-6 (designed binder) MTTASTSQVRQNYHQDSEAAINRQINLELYASYVYLSMSYYFDRDDVALKNFAKYFLHQSHEEREHAEKLMKLQNQRGGRIFLQDIKKPDCDDWESGLNAMECALHLEKNVNQSLLELHKLATDKNDSGHGYSYGAFDYPHLCDFIETHYLNEQVKAIKELGDHVTNLRKMGAPESGLAEYLFDKHTLGDSDNES | 71.2 nM | –
2 | huHF-TPP1 (AB loop) (designed binder, not shown: small tags and cut ends) MTTASTSQVRQNYHQDSEAAINRQINLELYASYVYLSMSYYFDRDDSGQYASYHCWCWRDPGRSGGSKVALKNFAKYFLHQSHEEREHAEKLMKLQNQRGGRIFLQDIKKPDCDDWESGLNAMECALHLEKNVNQSLLELHKLATDKNDPHLCDFIETHYLNEQVKAIKELGDHVTNLRKMGAPESGLAEYLFDKHTLGDSDNES | – | 72.1 nM
3 | huHF-TPP1 (CD loop) (designed binder, not shown: small tags and cut ends) MTTASTSQVRQNYHQDSEAAINRQINLELYASYVYLSMSYYFDRDDVALKNFAKYFLHQSHEEREHAEKLMKLQNQRGGRIFLQDIKKPDCDDWESGLNAMECALHLEKNVNQSLLELHKLATDKNDSGQYASYHCWCWRDPGRSGGSKPHLCDFIETHYLNEQVKAIKELGDHVTNLRKMGAPESGLAEYLFDKHTLGDSDNES | – | 115 nM
